Measurements from patent US20140170137A1 (NVIP, published 2014).

Legend:
[1] = biological target: NGF (TF-1 cell proliferation assay); experiment: cell-based or functional assay
[2] = biological target: T1, mouse NGF (mouse, UniProt P01139 122-241); experiment: ELISA, CHO supernatant on murine NGF
T1 construct: also called murine NGF

[3] = biological target: T2, complement C1q (human, UniProt P02745 23-245; P02746 28-253; P02747 29-245); experiment: C1q ELISA, antibody captured on mouse NGF coated plates
T2 construct: Supplied as human serum diluted 1/100; detected with sheep anti-C1q-HRP
T2 sequence (P02745 23-245 limits assumed, chain 1 of 3): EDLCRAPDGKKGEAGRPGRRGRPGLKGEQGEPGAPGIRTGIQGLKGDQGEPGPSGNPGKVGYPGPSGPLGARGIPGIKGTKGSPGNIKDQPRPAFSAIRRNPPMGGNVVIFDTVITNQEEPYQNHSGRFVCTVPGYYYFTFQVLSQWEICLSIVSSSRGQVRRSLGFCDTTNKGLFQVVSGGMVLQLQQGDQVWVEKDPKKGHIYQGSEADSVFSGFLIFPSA
T2 sequence (P02746 28-253 limits assumed, chain 2 of 3): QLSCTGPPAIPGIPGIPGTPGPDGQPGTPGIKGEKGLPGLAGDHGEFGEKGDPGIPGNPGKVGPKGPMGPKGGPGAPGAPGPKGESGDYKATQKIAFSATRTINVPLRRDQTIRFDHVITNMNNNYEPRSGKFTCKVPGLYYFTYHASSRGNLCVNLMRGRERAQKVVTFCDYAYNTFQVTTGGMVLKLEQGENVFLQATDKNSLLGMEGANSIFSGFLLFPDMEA
T2 sequence (P02747 29-245 limits assumed, chain 3 of 3): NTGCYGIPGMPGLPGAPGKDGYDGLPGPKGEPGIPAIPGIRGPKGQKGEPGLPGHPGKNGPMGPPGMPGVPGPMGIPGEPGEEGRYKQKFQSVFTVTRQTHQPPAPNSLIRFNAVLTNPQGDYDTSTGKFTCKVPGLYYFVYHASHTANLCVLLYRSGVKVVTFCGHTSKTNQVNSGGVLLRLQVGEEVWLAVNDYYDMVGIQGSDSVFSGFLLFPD

[4] = biological target: T1, mouse NGF; experiment: binding ELISA to mouse NGF, CHO supernatants
[5] = biological target: T2, complement C1q; experiment: C1q ELISA, antibody captured on mouse NGF, human serum 1/100
[6] = biological target: T2, complement C1q; experiment: C1q ELISA, antibody captured on NGF coated plates
[7] = biological target: T2, complement C1q; experiment: C1q ELISA, antibody captured on NGF

T1 sequence (P01139 122-241 limits assumed): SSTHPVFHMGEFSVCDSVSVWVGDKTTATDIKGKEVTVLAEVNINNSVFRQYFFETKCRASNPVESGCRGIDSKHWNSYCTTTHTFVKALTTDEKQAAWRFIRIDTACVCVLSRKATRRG
Sequence of NGF (TF-1 cell proliferation assay) (P01138 122-241): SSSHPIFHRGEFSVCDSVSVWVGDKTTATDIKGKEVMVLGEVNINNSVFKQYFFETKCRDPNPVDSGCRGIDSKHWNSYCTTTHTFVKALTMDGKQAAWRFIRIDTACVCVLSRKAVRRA

Binder | binding result [2] | binding result [3] | binding result [4] | binding result [5] | further results
caN-HCA-kLC (antibody, Caninised aD11 VH joined to canine HCA (caIgG-A) constant domain; caninised aD11 VL joined to canine kappa constant domain; also called caninised anti-NGF antibody, HCA isotype; anti-canine NGF antibody (HCA isotype)) heavy: EVQLVESGGDLVNPGGTLTLSCVVSGFSLTNNNVNWVRQALGRGLEWVGGVWAGGATDYNSALKSRLTITRDTSKSTVFLKMHSLQSEDTATYYCARDGGYSSSTLYAMDAWGQGTLVTVSSASTTAPSVFPLAPSCGSTSGSTVALACLVSGYFPEPVTVSWNSGSLTSGVHTFPSVLQSSGLHSLSSMVTVPSSRWPSETFTCNVVHPASNTKVDKPVFNECRCTDTPPCPVPEPLGGPSVLIFPPKPKDILRITRTPEVTCVVLDLGREDPEVQISWFVDGKEVHTAKTQSREQQFNGTYRVVSVLPIEHQDWLTGKEFKCRVNHIDLPSPIERTISKARGRAHKPSVYVLPPSPKELSSSDTVSITCLIKDFYPPDIDVEWQSNGQQEPERKHRMTPPQLDEDGSYFLYSKLSVDKSRWQQGDPFTCAVMHETLQNHYTDLSLSHSPGK light: DIQMTQSPASLSLSQEEKVTITCRASEDIYNALAWYQQKPGQAPKLLIYNTDTLHTGVPSRFSGSGSGTEYSLTINSLESEDVAVYFCQHYFHYPRTFGAGTKVELKRNDAQPAVYLFQPSPDQLHTGSASVVCLLNSFYPKDINVKWKVDGVIQDTGIQESVTEQDKDSTYSLSSTLTMSSTEYLSHELYSCEITHKSLPSTLIKSFQRSECQRVD | binds | no binding (tested: human serum diluted 1/100) |  |  | IC50, TF-1 NGF neutralisation assay [1]: 0.013 nM
caN-HCB-kLC (antibody, Caninised aD11 VH joined to canine HCB (caIgG-B) constant domain; canine kappa light chain; CHO supernatant; also called caninised anti-NGF antibody, HCB isotype) heavy: EVQLVESGGDLVNPGGTLTLSCVVSGFSLTNNNVNWVRQALGRGLEWVGGVWAGGATDYNSALKSRLTITRDTSKSTVFLKMHSLQSEDTATYYCARDGGYSSSTLYAMDAWGQGTLVTVSSASTTAPSVFPLAPSCGSTSGSTVALACLVSGYFPEPVTVSWNSGSLTSGVHTFPSVLQSSGLYSLSSMVTVPSSRWPSETFTCNVAHPASKTKVDKPVPKRENGRVPRPPDCPKCPAPEMLGGPSVFIFPPKPKDTLLIARTPEVTCVVVDLDPEDPEVQISWFVDGKQMQTAKTQPREEQFNGTYRVVSVLPIGHQDWLKGKQFTCKVNNKALPSPIERTISKARGQAHQPSVYVLPPSREELSKNTVSLTCLIKDFYPPDIDVEWQSNGQQEPESKYRTTPPQLDEDGSYFLYSKLSVDKSRWQRGDTFICAVMHEALHNHYTQESLSHSPGK light: DIQMTQSPASLSLSQEEKVTITCRASEDIYNALAWYQQKPGQAPKLLIYNTDTLHTGVPSRFSGSGSGTEYSLTINSLESEDVAVYFCQHYFHYPRTFGAGTKVELKRNDAQPAVYLFQPSPDQLHTGSASVVCLLNSFYPKDINVKWKVDGVIQDTGIQESVTEQDKDSTYSLSSTLTMSSTEYLSHELYSCEITHKSLPSTLIKSFQRSECQRVD |  |  | binds | binds | 
anti-NGF MAb with aglycosyl HCB heavy chain (HCB*) (antibody, also called aglycosylated HCB*; aglycosyl HCB* isotype anti-NGF antibody) heavy: EVQLVESGGDLVNPGGTLTLSCVVSGFSLTNNNVNWVRQALGRGLEWVGGVWAGGATDYNSALKSRLTITRDTSKSTVFLKMHSLQSEDTATYYCARDGGYSSSTLYAMDAWGQGTLVTVSSASTTAPSVFPLAPSCGSTSGSTVALACLVSGYFPEPVTVSWNSGSLTSGVHTFPSVLQSSGLYSLSSMVTVPSSRWPSETFTCNVAHPASKTKVDKPVPKRENGRVPRPPDCPKCPAPEMLGGPSVFIFPPKPKDTLLIARTPEVTCVVVDLDPEDPEVQISWFVDGKQMQTAKTQPREEQFAGTYRVVSVLPIGHQDWLKGKQFTCKVNNKALPSPIERTISKARGQAHQPSVYVLPPSREELSKNTVSLTCLIKDFYPPDIDVEWQSNGQQEPESKYRTTPPQLDEDGSYFLYSKLSVDKSRWQRGDTFICAVMHEALHNHYTQESLSHSPGK light: DIQMTQSPASLSLSQEEKVTITCRASEDIYNALAWYQQKPGQAPKLLIYNTDTLHTGVPSRFSGSGSGTEYSLTINSLESEDVAVYFCQHYFHYPRTFGAGTKVELKRNDAQPAVYLFQPSPDQLHTGSASVVCLLNSFYPKDINVKWKVDGVIQDTGIQESVTEQDKDSTYSLSSTLTMSSTEYLSHELYSCEITHKSLPSTLIKSFQRSECQRVD |  |  | binds |  | binding result [6]: no binding (tested: human serum diluted 1/100)
caN-HCC-kLC (antibody, Caninised aD11 VH joined to canine HCC (caIgG-C) constant domain; canine kappa light chain; CHO supernatant; also called caninised anti-NGF antibody, HCC isotype) heavy: EVQLVESGGDLVNPGGTLTLSCVVSGFSLTNNNVNWVRQALGRGLEWVGGVWAGGATDYNSALKSRLTITRDTSKSTVFLKMHSLQSEDTATYYCARDGGYSSSTLYAMDAWGQGTLVTVSSASTTAPSVFPLAPSCGSQSGSTVALACLVSGYIPEPVTVSWNSVSLTSGVHTFPSVLQSSGLYSLSSMVTVPSSRWPSETFTCNVAHPATNTKVDKPVAKECECKCNCNNCPCPGCGLLGGPSVFIFPPKPKDILVTARTPTVTCVVVDLDPENPEVQISWFVDSKQVQTANTQPREEQSNGTYRVVSVLPIGHQDWLSGKQFKCKVNNKALPSPIEEIISKTPGQAHQPNVYVLPPSRDEMSKNTVTLTCLVKDFFPPEIDVEWQSNGQQEPESKYRMTPPQLDEDGSYFLYSKLSVDKSRWQRGDTFICAVMHEALHNHYTQISLSHSPGK light: DIQMTQSPASLSLSQEEKVTITCRASEDIYNALAWYQQKPGQAPKLLIYNTDTLHTGVPSRFSGSGSGTEYSLTINSLESEDVAVYFCQHYFHYPRTFGAGTKVELKRNDAQPAVYLFQPSPDQLHTGSASVVCLLNSFYPKDINVKWKVDGVIQDTGIQESVTEQDKDSTYSLSSTLTMSSTEYLSHELYSCEITHKSLPSTLIKSFQRSECQRVD |  |  | binds | binds | 
anti-NGF MAb with aglycosyl HCC heavy chain (HCC*) (antibody) heavy: EVQLVESGGDLVNPGGTLTLSCVVSGFSLTNNNVNWVRQALGRGLEWVGGVWAGGATDYNSALKSRLTITRDTSKSTVFLKMHSLQSEDTATYYCARDGGYSSSTLYAMDAWGQGTLVTVSSASTTAPSVFPLAPSCGSQSGSTVALACLVSGYIPEPVTVSWNSVSLTSGVHTFPSVLQSSGLYSLSSMVTVPSSRWPSETFTCNVAHPATNTKVDKPVAKECECKCNCNNCPCPGCGLLGGPSVFIFPPKPKDILVTARTPTVTCVVVDLDPENPEVQISWFVDSKQVQTANTQPREEQSAGTYRVVSVLPIGHQDWLSGKQFKCKVNNKALPSPIEEIISKTPGQAHQPNVYVLPPSRDEMSKNTVTLTCLVKDFFPPEIDVEWQSNGQQEPESKYRMTPPQLDEDGSYFLYSKLSVDKSRWQRGDTFICAVMHEALHNHYTQISLSHSPGK light: DIQMTQSPASLSLSQEEKVTITCRASEDIYNALAWYQQKPGQAPKLLIYNTDTLHTGVPSRFSGSGSGTEYSLTINSLESEDVAVYFCQHYFHYPRTFGAGTKVELKRNDAQPAVYLFQPSPDQLHTGSASVVCLLNSFYPKDINVKWKVDGVIQDTGIQESVTEQDKDSTYSLSSTLTMSSTEYLSHELYSCEITHKSLPSTLIKSFQRSECQRVD |  |  | binds |  | binding result [7]: binds
caN-HCD-kLC (antibody, Caninised aD11 VH joined to canine HCD (caIgG-D) constant domain; canine kappa light chain; CHO supernatant; also called caninised anti-NGF antibody, HCD isotype) heavy: EVQLVESGGDLVNPGGTLTLSCVVSGFSLTNNNVNWVRQALGRGLEWVGGVWAGGATDYNSALKSRLTITRDTSKSTVFLKMHSLQSEDTATYYCARDGGYSSSTLYAMDAWGQGTLVTVSSASTTAPSVFPLAPSCGSTSGSTVALACLVSGYFPEPVTVSWNSGSLTSGVHTFPSVLQSSGLYSLSSTVTVPSSRWPSETFTCNVVHPASNTKVDKPVPKESTCKCISPCPVPESLGGPSVFIFPPKPKDILRITRTPEITCVVLDLGREDPEVQISWFVDGKEVHTAKTQPREQQFNSTYRVVSVLPIEHQDWLTGKEFKCRVNHIGLPSPIERTISKARGQAHQPSVYVLPPSPKELSSSDTVTLTCLIKDFYPPEIDVEWQSNGQPEPESKYHTTAPQLDEDGSYFLYSKLSVDKSRWQQGDTFTCAVMHEALQNHYTDLSLSHSPGK light: DIQMTQSPASLSLSQEEKVTITCRASEDIYNALAWYQQKPGQAPKLLIYNTDTLHTGVPSRFSGSGSGTEYSLTINSLESEDVAVYFCQHYFHYPRTFGAGTKVELKRNDAQPAVYLFQPSPDQLHTGSASVVCLLNSFYPKDINVKWKVDGVIQDTGIQESVTEQDKDSTYSLSSTLTMSSTEYLSHELYSCEITHKSLPSTLIKSFQRSECQRVD | binds | no binding (tested: human serum diluted 1/100) |  |  | 
